The results in this text go back to patent US20160279261A1 (Genentech, published 2016).

This assay concerns the target CD33 (UniProt P20138 18-364, limits assumed). In words: cell-based or functional assay.

Chain of CD33 (P20138 18-364 limits assumed): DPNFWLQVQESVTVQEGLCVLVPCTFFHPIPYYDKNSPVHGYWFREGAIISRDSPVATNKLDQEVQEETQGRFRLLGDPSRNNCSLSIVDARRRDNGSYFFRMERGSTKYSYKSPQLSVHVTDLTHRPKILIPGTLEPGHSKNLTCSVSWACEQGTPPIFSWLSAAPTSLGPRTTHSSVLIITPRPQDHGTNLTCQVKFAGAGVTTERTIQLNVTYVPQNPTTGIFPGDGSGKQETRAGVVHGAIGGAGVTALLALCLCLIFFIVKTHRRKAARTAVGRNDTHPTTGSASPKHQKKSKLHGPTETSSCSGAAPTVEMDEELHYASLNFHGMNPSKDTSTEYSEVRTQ

B1: CD33 CBI-PBD ADC2-2 (antibody, V domains shown)
VH: QVQLVQSGAEVKKPGSSVKVSCKASGGIFSNHAISWVRQAPGQGLEWMGGIIPIFGTANYAQKFQGRVTITADESTSTAFMELSSLRSEDTAVYYCAREWADVFDIWGQGTMVTVSS
VL: EIVLTQSPLSLPVTPGEPASISCRSSQSLLHSNGYNYLDWYLQKPGQSPQLLIYLGVNSVSGVPDRFSGSGSGTDFTLKISRVEAEDVGVYYCMQALQTPWTFGQGTKVEIK
Take B1: the “EOL-1 IC50 (in vitro cell proliferation assay)” value stood at 370 ng/mL.

B2: CD33 CBI-PBD ADC3-2 (antibody, V domains shown)
VH: B1 VH
VL: B1 VL
Regarding B2, the “EOL-1 IC50 (in vitro cell proliferation assay)” value was 18.1 ng/mL.
